From patent US7538262B2, “GDC-2 genes conferring herbicide resistance” (Athenix Corporation, priority 2003, dated 2009)

Key:
[1] = Assay of GDC-2 acetolactate synthase activity (acetoin colorimetric detection); assay type: biochemical; conditions: 50 mM pyruvate, 1 mM TPP, 10 mM MgCl2, 0.01 mM FAD, pH 7.0, 2 hours at 37° C.
Protocol: Acetolactate synthases are decarboxylating enzymes that condense two pyruvate molecules to form acetolactate with the release of a CO2 moiety from one of the pyruvate substrates. In the detection of the enzymatic reaction described by Pang and Duggleby (Pang and Duggleby (1999) Biochemistry 18:5222-5231), the product acetolactate is converted to acetoin by incubation with 1% H2SO4 for 15 minutes at 60° C. followed by neutralization with KOH. The acetoin is then detected as described by Westerfeld (Westerfeld (1945) J. Biol. Chem.161:495-502), using 0.15% creatine and 1.5% alpha-naphthol (dissolved in 2.5 N NaOH). The red colored reaction product is quantified by absorbance at 525 nm.
Samples containing either 5 μg or 10 μg of GDC-2 were incubated in 50 mM pyruvate, 1 mM […] pyrophosphate, 10 mM MgCl2, 0.01 mM Flavin adenine dinucleotide (FAD), 100 mM potassium phosphate buffer pH 7.0 (total reaction volume of 50 μl) for 2 hours at 37° C. The reaction was stopped by the addition of 1 μl of 50% sulfuric acid (H2SO4) and incubated at 60° C. for 15 minutes. The reaction was neutralized by the addition of 30 μl of 1 N KOH followed by the addition of 10 μl of 1.5% creatine and 10 μl of 15% alpha-napthol dissolved in 2.5 N NaOH. The red colored reaction product was quantified by absorbance at 525 nm.

[2] = tested on: ΔaroA E. coli; experiment: Genetic complementation of aroA mutation in E. coli; assay type: cell-based; conditions: ΔaroA E. coli transformed with pAX473; M63 alone
Description: The E. coli aroA gene codes for EPSP synthase, the target enzyme for glyphosate. […] However, genes encoding EPSPS activity can restore the ability to grow […] upon aroA mutant E. coli strains. Thus, a test for genetic complementation of an aroA mutant is a highly sensitive method to test if a gene is capable of functioning as an EPSPS in E. coli. Such tests for gene function by genetic complementation are known in the art.
A deletion of the aroA gene was created in E. coli XL-1 MRF′ (Stratagene) by PCR/recombination methods known in the art and outlined by Datsenko and Wanner, (2000) Proc. Natl. Acad. Sci. USA 97:6640-6645. This system is based on the Red system that allows for chromosomal disruptions of targeted sequences. A large portion (1067 nt of the 1283 nt) of the aroA coding region was disrupted by the engineered deletion.
The ability of an EPSPS to complement the mutant phenotype of ΔaroA was confirmed. Clone pAX482, an E. coli expression vector containing the wild-type E. coli aroA gene, was transformed into ΔaroA, and transformed cells were selected. These cells (containing a functional aroA gene residing on a plasmid) were then plated on LB media, M63, and M63 with amino acid supplements. […]

B1: GDC-2: glyphosate resistance-conferring decarboxylase protein (SEQ ID NO:3), acetolactate synthase homologue from strain ATX6837; purified as 6× His-tagged protein (protein)
chain: MLRSRQASKALRALGQARHFTSTTQPAAVQAPRKVASGQRNQATAATATSAAPNVRATPSPAFNAEEQQQQKHSHVQPLVNPQKSDMDESFIGKTGGEIFHEMMLRQGVKHIFGYPGGAILPVFDAIYNSKHFDFILPRHEQGAGHMAEGYARASGKPGVVLVTSGPGATNVVTPMQDALSDGTPLVVFCGQVPTSAIGSDAFQEADVVGISRACTKWNVMVKNVAELPRRINEAFEIATSGRPGPVLVDLPKDVTAGILRRAIPTETALPALPSAASRAAMESSRKHLEHTIKRVADLVNKAKQPVIYAGQGIIQSEGGPELLKELADKASIPVTTTLQGLGGFDELDEKSLHMLGMHGSAYANMAMQEADLIIALGARFDDRVTLNVAKFAPGARAAAAEKRGGIVHFEVMPKNINKVVQATEAVEGNVGSNLKLLLPEVQAKTMDDRKEWFGKINEWKKKWPLSHYERAERHGLIKPQTLIEELSKLTADRKDKTYIATGVGQHQMWTAQHFRWRHPRSMITSGGLGTMGFGLPAAIGAKVAQPDALVFDIDGDASFGMTLTELATAAQFNIGVKVIVLNNEEQGMVTQWQNLFYEDRYAHTHQVNPDFMKLAESMRVQGRRCVDPEDVVDSLKWLINTDGPALLEVVTDKKVPVLPMVPAGSALHEFLVFDGEKDKKRRELMRERTSGLHG
modifications: 6xHis tag; Fungal isolate from soil sample
notes: purified as 6× His-tagged protein
[1]; 5 μg GDC-2
  Absorbance 525 nm (acetolactate synthase activity): 1.99
[1]; 10 μg GDC-2
  Absorbance 525 nm (acetolactate synthase activity): 3.13
[2]
  Complementation of the aroA mutation (growth on M63 minimal media lacking aromatic amino acids): not capable of complementing the aroA mutation
